Measured values published in the DeepSol protein solubility set.

Assay: soluble on expression in E. coli; label from the status in PepcDB or PDB records

Sequence	soluble on expression in E. coli
MTDSTIRIAIVGAGGRMGRQLIQAVTQMEGVVLGAAIERKGSTLVGSDAGELAGVGLLNVIVGDDLSQLTDNFDVLIDFTRPEGTLEHLAICRQHRKAMVIGTTGFDEAGKAAISEAAADIGIVFAANFSVGVNVVLKLLEKAAKVMGDYTDIEIIEAHHRHKVDAPSGTALAMGEAIADAMGRSLKDCAVYSREGYTGERKPGTIGFATVRAGDIVGEHTAMFADIGERVEITHKATSRMTFAHGAVKSAIWLGKHDNGLFDMRDVLNLNEL	soluble
MTDVARLLALRSFTELGARQRARALLDAGSFRELLDPFAGVQSPWLERQGIVPQADDGVVVARGLLDGQPAVLAAIEGAFQGGSLGEVSGAKIAGALELAAEDNRNGVPTRALLLLETGGVRLQEANLGLAAIAEIQAAIVDLQRYQPVVAVIAGPVGCFGGMSIAAGLCSYVLVTREARLGLNGPQVIEQEAGIAEYDSRDRPFIWSLTGGEQRFASGLADAYLADDLDEVRTSVLAYFAKGLPARPRCRRAEDYLRRLGDLDTAEQPDAAGVRRLYQGLGQGDAT	not soluble
MTEAKIVDISSKDIVLREAVVEGYIKLRKETIEKIKNKEVEKGDVITVAKTAGILAAKKTPELIPMCHPIPLEFVDVEIKIEEEGLRVISTVKAHYKTGVEMEALTATSVALLTIWDMVKKYEKDENGQYPYTEIKSIRVINKIKTYDDMK	soluble
MTEHSLWRFSRALHRALNDRQTEELATIIDDNIDWAIYGPIDMFPFFGARQGKAAVLEVCRQIADSVRIYRYHRESVMLGIDSAASMVRYSLTAAGTNRPISVRMALFTQFQNGRLTNLRMVLDTFDLVEQALGRPIHLPKIA	soluble
MTEKSLKLFIVLSRAYRSINDHMNKHIHKHGLNPTEFAVLELLYHKGDQPLQQIGDKILLASGSITYVVDKLEQKELLIRKASPTDRRVTFAQITEKGIGLLNDIFPDHAAEIDEMISVLSEEEVEMCTEMLKRVGLNAKQFHNK	not soluble
MTESTFPQYPRLVLSKGREKSLLRRHPWVFSGAVSRLEGKANLGETIDIVDHQGKWLARGAWSPASQIRARVWTFDKAESIDIAFFTRRLRQAQQWRDWLAKKDGLDSYRLIAGESDGLPGVTIDRFGHFLVLQLLSAGAEYQRAALISALQTCYPDCAIYDRSDVAVRKKEGMALTQGPVTGELPPALLPIEEHGMKLLVDIQGGHKTGYYLDQRDSRLATRRYVENQRVLNCFSYTGGFAVSALMGGCRQVVSVDTSQDALDIARQNVELNQLDLSKAEFVRDDVFKLLRAYREHGEKFDVIIMDPPKFVENKSQLMGACRGYKDINMLAIQLLNPGGILLTFSCSGLMTSDLFQKIIADAAIDAGRDVQFIEQFRQAADHPVIATYPEGLYLKGFACRVM	not soluble
MTETATARRSRITPEREAELYEAVLDLLREVGYDALTMDAVAARTRSSKATLYRQWGGKPELVVKAIRHNKPGEIGDVDTGSLRGDLHALMVREDDCTMEQNSALMRGVAMALHQNPDLRQAFREQLIEPEMAEFQRVLQRAVDRGEIRADCPALDFLVHMMVGGFATRTLLDDQPPTREFLASYIDAVILPALGVSTH	not soluble
MTETIKCIGCGVEIQTEDKNEVGYAPASSLEKEQVICQRCFRLKHYNEIQDVSLTDDDFLRILNGIGKSDALVVKIVDIFDFNGSWLPGLHRFVGNNKVLLVGNKADLIPKSVKHDKVKHWMRYSAKQLGLKPEDVFLISAAKGQGIAELADAIEYYRGGKDVYVVGCTNVGKSTFINRMIKEFSDETENVITTSHFPGTTLDLIDIPLDEESSLYDTPGIINHHQMAHYVGKQSLKLITPTKEIKPMVFQLNEEQTLFFSGLARFDYVSGGRRAFTCHFSNRLTIHRTKLEKADELYKNHAGDLLSPPTPEELENMPELVKYEFNIREPKTDVVFSGLGWVTVNEPGAKIVAHVPKGVSVSLRKSLI	soluble
MTEVILFFFATPKRATFSLELTSMKKLATLLAGSACALSLLSGTAAAEDKELVFMNWGPYINSGILEQFTKETGIKVIYSTYESNETLYAKLKTHNQGYDLVVPSTYFVAKMRDEGMLQKIDKSKLSNFKNLDSNYLDKPYDPNNDYSIPHVVAITGLAVNTDMYDPNDFQSWGDLWKPELKGQLMLMDDTREVFHIALRKLGYSGNSTDDKQIDEAYAELQKLMPNVLVFNSDNPAAPYLSGEVGLGMLWNGSAAAAQKEGLPIKLVFPKEGGIGWVDNFAISSGAKNVDAAHKMIDFLLRPEIAEQISRDTGYLTGVKASNDKFQDVAPLFPSQEDLDRVEWQSAVGDKTVKYEEYFMKLKAGQ	not soluble
MTFLDKIKQGCLDGWAKYKILPSLTAAQAILESGWGKHAPHNALFGIKADASWTGKSFNTKTQEEYQAGVITDIVDRFRAYDSWDESIADHGQFLVDNPRYQSVIGEADYKKACHAIKDAGYATASGYAELLIQIIEENNLQKWDKEAIVRKEKQMINSQCREVIEFFINLANAGMGVDKDSFAGWQCADVPCYAAKHWFDVDLWGNAIDLLDSAAAVGWEVHRMPTDANPLTGAFFVQSVPYHQFGHTGIVIEDSDGYTMRTVEQNIDGNPDALYVGAPARFNTRDFTGVIGWFYPPYQGDTVTQPVSTEPQTSETIVETAKTGTFTLDVAEINIRRWPSLASEVVGSYKQGDTVSFDNEGYANGYYWISYVGGSGMRNYLGIGQTDKDGNRISLWGKLNLEHHHHHH	soluble
MTGLYIHIPFCATRCSYCDFYSQTNSALRSEYIQALIAEMSIRRAEVTDTIGTLYFGGGTPSLLSPQEIGRIIEQVYRLFSFSSDAEITLEANPDDLNTSYVQELRTLPINRISMGAQSFHDEDLHFLNRRHNARQVLEAVDTCRNAGLTNLSIDLIYGLPGQTPARWQENISAVLALSPPHLSAYHLIYEEGTPLTRLLHAGKVREVDEEVSLELFRMLREQLTGAGYEHYEISNFARSGYHSCHNSSYWQDTPYLGLGPSAHSFDGRRTRRSNPSDIRRYIVSMAAGKPLFTEEILTDNDRYNEVVMTRLRTACGLSPDQIGHLFGKESAERCIRTAAPFIRDGLLHEEADGRIRLTEKGIFLSDRIISEFFIV	not soluble
MTGSNSHITILTLNINGLNSAIKRHRLASWIKSQDPSVCCIQETHLTCRDTHRLKIKGWRKIYQANGKQKKAGVAILVSDKTDFKPTKIKRDKEGHYIMVKGSIQQEELTILNIYAPNTGAPRFIKQVLSDLQRDLDSHTLIMGDFNTPLSTLDRSTRQKVNKDTQELNSALHQADLIDIYRTLHPKSTEYTYVRVRDGHVSQSKIDHIVGSKALLSKCKRTEIITNYLSDHSAIKLELR	soluble
MTGSQEDQPKIIIDQEQPKTLETEHQPEPSSSSPDQKKWGTHVMGAPAAPVAHPDNQQAAAWVAGDNQQTQYQPYVIYSPVEHPTTNNPLEPVIGMFHTWSRKAETVARNLWHNLKTGPSMSETAWGKVNLTAKAITKGGFESLFRQIFGTEPNETLKKTFACYLSTTTGPVAGTVYLSNARVAFCSDRPLYFTAPSGQESWSYYRVVVPLANVATVNPVVVKETPPEKYIQLTTVDGHDFWFMGFVNYEKATHHLLTSVSDFQTAHGSVSG	soluble
MTGTVSRRKKIAMIGSGMIGGTMGYLCVLRELADVVLFDVVTGMPEGKALDDSQATSIADTNVSVTSANQYEKIAGSDVVIITAGLTKVPGKSDKEWSRNDLLPFNAKIIREVAQGVKKYCPLAFVIVVTNPLDCMVKCFHEASGLPKNMVCGMANVLDSARFRRFIADQLEISPRDIQATVIGTHGDHMLPLARYVTVNGFPLREFIKKGKMTEAKLAEIVERTKKAGGEIVRLLGQGSAYYAPALSAITMAQAFLKDEKRVLPCSVYCQGEYGLHDMFIGLPAVIGGGGIEQVIELELTHEEQECFRKSVDDVVELNKSLAALGPG	soluble
MTHHHHHHAMGPAAGQAYDAGNLDVASSPVKPTLSITKKTLTAAEAPNAKVTMELSVEGAADKYAATGLHIQFDPKLKLIPDEDGALATAGRAARLLELKKAEADTDNSFFTATGSSTNNGKDGVLWSFVLQVPADAQPGDKYDVQVAYQSRTTNEDLFTNVKKDEEGLLMQAWTFTQGIEQGYIQVESTTSLE	soluble
MTHYKDDSYALHTDLYQINMAYTYWKDGIHNRRSVFDLYFRKLPFENGYAVFAGLEKIVEYIENFSFTESDIAYLAELQFEEEFLHYLQNMKFTGTIRSMQEGEVVFNNEPLLRVDAPLGEAQIIETALLNIVNYQTLIATKAARMKHAASNDELLEFGTRRAHEFDAALWGTRAAFIGGFSSTSNVRAGKRFGIPVAGTHAHSFVQAYRDEYVAFKKYAETHKKCVFLVDTYDTLKSGVPNAIRVAKEFGDRIDFYGIRLDSGDMAYLSKKARKLLDEAGFTNTKIIASSDLDEYTIMHLKSQGAKIDVWGVGTKLITSFEQPALGAVYKLVAIEDTDGKLNDTIKISSNPEKITTPGLKRIYRIINRVNDHAEGDYIALDSEEPGKEERLKMFHPVHTYISKFVTNFEARELHKDIFVNGERTYELPSILDIQKYNEQSLSLFWEEYMRTLNPEEYPVDLSQECWDHKMNYIQTVREQVEKNIQK	not soluble
MTHYKYYEANVETNQVLVLLHGFLSDSRTYYNHIDKYTDICHVITIDLPGHGEDQSSMDETWNFDYITTLLDRILDKYKDKSITLFGYSMGGRVALYYAINGHIPISNLILESTSPGIKEEANQLERRLVDDARAKVLDIAGIELFVNDWEKLPLFQSQLELPVEIQHQIRLQRLSQSPQKMAKALRDYGTGQMPNLWPRLKEIKVPTLILAGEYDEKFVQIAKKMANLIPNSKCKLISATGHTIHVEDSDEFDTMILGFLKEEQND	not soluble
MTIDKLKLNTINLRNTFSNRSKPPISIITSTNKPKYFRNTIKNYTRLNYRYKELILIFNIDNIDIDYYKSYAEKIPNVMVFQLNECYSLGYCLNFGVNQSKYNYIAKMDDDDYYGPNYLTDEINAFNYTDAKIIGKCKYFTYFEDTRDLSINNYSQSYDYTNFIAGGTFLIKKELFKTYKFRDVNMSEDAGFLDDCSSHGIKIYSIDPFNYVYMRHKSLNEHTWKIPTTALKKQYFHFYKTTNYIPIVKILEHHHHHH	not soluble
MTIGFLGTGKISASMVDGLMRSVFDVPSIILSPRNAKRAEHLSRNYDKVIIAENNQALLDVCDCVFLCLPNQIAEEVLRSLRFRPEQLVVSVLAMAKAAEVEEWINHKVYRAVPLPFVAECKNLTPIYPDHPFLRSLFDALGGTLVLDAEEQFNLFMTAGSLMGVYFNFIETAHKWFITQGLKKQQSADFLAMMFGNLTDEMRKIMDQDCSTSLDFALLEKEFSTKGGTNELLSHCFSHQGGRSALTTALETTLQKINAPFTY	not soluble
MTIKVGINGFGRIGRIVFRAAQKRSDIEIVAINDLLDADYMAYMLKYDSTHGRFDGTVEVKDGHLIVNGKKIRVTAERDPANLKWDEVGVDVVAEATGLFLTDETARKHITAGAKKVVMTGPSKDNTPMFVKGANFDKYAGQDIVSNASCTTNCLAPLAKVINDNFGIIEGLMTTVHATTATQKTVDGPSHKDWRGGRGASQNIIPSSTGAAKAVGKVLPELNGKLTGMAFRVPTPNVSVVDLTVRLEKAATYEQIKAAVKAAAEGEMKGVLGYTEDDVVSTDFNGEVCTSVFDAKAGIALNDNFVKLVSWYDNETGYSNKVLDLIAHISK	soluble
